# Data reported in patent US20210062213A1 (UT BATTELLE, published 2021).
# T1: cCFP-DGCR14/ESS2 (human DGCR14/ESS2 fused with the C-terminal fragment of CFP) (Homo sapiens, UniProt Q96DF8 1-476)
# T1 construct: BiFC fusion transiently expressed in Arabidopsis leaf mesophyll protoplasts; also called Has DGCR14/ESS2; NM_022719; not shown: C-terminal fragment of CFP (cCFP) from vector pSATI-cCFP-C
# T1 sequence: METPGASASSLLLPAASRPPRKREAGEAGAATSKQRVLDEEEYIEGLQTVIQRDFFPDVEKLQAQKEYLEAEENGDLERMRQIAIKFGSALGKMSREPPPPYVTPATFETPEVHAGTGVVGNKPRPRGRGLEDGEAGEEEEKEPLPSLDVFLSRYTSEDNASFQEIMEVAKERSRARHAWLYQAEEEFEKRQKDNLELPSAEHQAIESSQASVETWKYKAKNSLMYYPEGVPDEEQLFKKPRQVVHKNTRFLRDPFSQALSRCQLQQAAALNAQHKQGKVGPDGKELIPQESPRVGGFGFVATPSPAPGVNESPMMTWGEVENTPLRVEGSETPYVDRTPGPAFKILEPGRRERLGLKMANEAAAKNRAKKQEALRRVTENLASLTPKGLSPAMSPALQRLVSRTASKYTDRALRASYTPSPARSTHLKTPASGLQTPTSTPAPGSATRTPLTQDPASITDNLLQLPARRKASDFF
# B1: nVenus-U1-70 k (U1 SMALL NUCLEAR RIBONUCLEOPROTEIN-70K fused with the N-terminal fragment of Venus) (other, Arabidopsis, UniProt Q42404 1-427, looked up)
# chain: MGDSGDPFLRNPNAAVQARAKVQNRANVLQLKLMGQSHPTGLTNNLLKLFEPRPPLEYKPPPEKRKCPPYTGMAQFVSNFAEPGDPEYAPPKPEVELPSQKRERIHKLRLEKGVEKAAEDLKKYDPNNDPNATGDPYKTLFVSRLNYESSESKIKREFESYGPIKRVHLVTDQLTNKPKGYAFIEYMHTRDMKAAYKQADGQKIDGRRVLVDVERGRTVPNWRPRRLGGGLGTSRVGGGEEIVGEQQPQGRTSQSEEPSRPREEREKSREKGKERERSRELSHEQPRERSRDRPREDKHHRDRDQGGRDRDRDSRRDRDRTRDRGDRDRRDRDRGRDRTSRDHDRDRSRKKERDYEGGEYEHEGGGRSRERDAEYRGEPEETRGYYEDDQGDTDRYSHRYDKMEEDDFRYEREYKRSKRSESREYVR
# notes: BiFC fusion transiently expressed in Arabidopsis protoplasts; also called AT3G50670; not shown: N-terminal fragment of Venus (nVenus) from vector pSATI-nVenus-C
# B2: nVenus-U2B (U2 SMALL NUCLEAR RIBONUCLEOPROTEIN B fused with the N-terminal fragment of Venus) (other, Arabidopsis, UniProt O22922 1-232, looked up)
# chain: MLTADIPPNQSIYIQNLNERIKKEELKRSLYCLFSQFGRILDVVALKTPKLRGQAWVTFSEVTAAGHAVRQMQNFPFYDKPMRLQYAKAKSDCLAKAEGTFVPKDKKRKQEEKVERKREDSQRPNTANGPSANGPSANNGVPAPSFQPSGQETMPPNNILFIQNLPHETTSMMLQLLFEQYPGFKEIRMIDAKPGIAFVEYEDDVQASIAMQPLQGFKITPQNPMVISFAKK
# notes: BiFC fusion transiently expressed in Arabidopsis protoplasts; also called AT2G30260; not shown: N-terminal fragment of Venus (nVenus) from vector pSATI-nVenus-C
# B3: cCFP-DGCR14l (Arabidopsis thaliana DGCR14-like fused with the C-terminal fragment of CFP) (other)
# chain: MFLSPGHSPRQISSPSPSSYSDDTLRSTPRSSSSEIIPRNPRKRMRVLDEDAYVEAIEKIIERDYFPDITKLRDRLDWIQAVKTRDPIQIRDAQLKIIERRGKKANHHVGDTEGKTQTPGSTFLRNFTPLDEFDGKTPRTPGVSGREFHGVEVDAGDGDEDIDLNLSLDEFFRRYTSEDNESFSKILEKVNRKKKEKYGFLLEGEKEDGKSIEDVKRDRITDGYGTSDQPPSTLEGWKYTAKNLLMYHPADRGEAPLTEAERAVRLLGLTKEIVKGNTRFHGKTMDSRPREDGSVEILYTPIAGSSPMHISGRDRDKSKRYDLDDLRKTPNPFYVESDKRADNGYSFVRTPSPAPGLDESPFITWGEIDGTPMRLDLEDTPIDIGGSADGPHYNIPSAPPRDVRAHSLSRDASRKLRERSNSMFKKPPLPSPHRSGSASPNVRTLSPAAQKFFRKAIAKSSSTVDESLRASYRGASPRGASPGAVTPKSVRSISRFGKDGTSSETRSP
# notes: BiFC fusion transiently expressed in Arabidopsis leaf mesophyll protoplasts; also called Ath DGCR14l; Arabidopsis DGCR14; not shown: C-terminal fragment of CFP (cCFP) from vector pSATI-cCFP-C
# How the values were obtained:
# Assay in all cases: bimolecular fluorescence complementation (BiFC) in Arabidopsis protoplasts
# [1] = target: T1, cCFP-DGCR14/ESS2 (human DGCR14/ESS2 …)
# Protocol: (§1) Protoplast isolation and transfection were performed as previously described (Xie et al. (The Plant Cell 30, 1645-1660 (2018)). For subcellular localization, 8 μg of DGCR14l-YFP and DGCR14/ESS2-YFP constructs were co-transfected with 2 μg of the nuclear marker construct (mCherry-)VirD2NLS), respectively, into 100 μl of protoplasts (˜2×10⁴ cells) to determine their subcellular localizations. For colocalization, paired constructs (5 μg each) were co-transfected into 100 μl of protoplasts. For BiFC, paired genes were cloned into pSATI-nVenus-C (fuse with nVenus) and pSATI-cCFP-C (fuse with cCFP), respectively. Then their expression cassettes were cloned into pUC119 (pUC-RCS) vector using AscI for transient expression in protoplasts. The generated constructs (4 μl of nVenus construct and 4 μl of cCFP construct) were co-transfected with 2 μl of the nuclear marker construct (mCherry-VirD2NLS) into 100 μl of protoplasts. After 14 h incubation under weak light at room temperature, protoplasts were collected and resuspended in cold W5 solution (2 mM MES pH 5.7, 154 mM NaCl, 125 mM CaCl₂, and 5 mM KCl) to subject to microscopy. Images were collected using a Zeiss LSM 710 confocal microscope, equipped with 514 and 561 nm laser lines for excitation of YFP and mCherry, respectively. Images were processed using Zen software (Zeiss).
# (§2) To further test the association of DGCR14l and DGCR14/ESS2 with spliceosome, a bimolecular fluorescence complementation (BiFC) assay was performed in Arabidopsis protoplasts. In this assay, DGCR14 orthologs and U1-70 k were fused with split YFP (C-terminal fragment of CFP (cCFP) and N-terminal of Venus (nVenus)), and co-expressed in protoplasts. The interaction between two proteins will bring cCFP and nVenus together to form a functional YFP, which then leads to fluorescence. […] In contrast, no YFP signal was detected from DGCR14l-U2B or DGCR14/ESS2-U2B interaction (FIG. 2C), further supporting DGCR14's selectivity on spliceosome components.
# [2] = target: B1
# Protocol: as §1, §2
# [3] = target: B2
# Protocol: as §1, §2
Binder,binding result [1],binding result [2],binding result [3]
B1,binds,,
B2,no binding,,
B3,,binds,no binding
